From publication PMC4906797 come the findings set out here.

Broadly, the kcat is the maximal rate divided by the concentration of active sites.

The test system of this data set is C/C=C/C=C/C(=O)CC(=O)SCCNC(C)=O. Description: purified protein.

With “LovB (lovastatin nonaketide synthase) (Aspergillus terreus)”, the kcat is 3.27 s⁻¹.
